Source: the RNAGym collection of RNA variant scans (doi:10.1101/gr.219683.116)

B1: mRNA-splicing (parent)
chain: AGUUGCUGCUGGGAGCUCCAGCACAGUGAAAUGGACAGAAGGGCAGAGCAA

Variants of: B1
Experiment: exon inclusion enrichment index; higher = more inclusion; WT1 exon 5 minigene, HEK293

Row | Variant | exon inclusion enrichment index
1 | AGUUGAUUACGGGAGCUCCAGCACAGUGAAAUGGACAGAAGGGCAGAGCAA [C6A G8U C9A U10C] | 0.728
2 | AGUUGAUUAAGGGAGCUCCAGCACAGUGAAAUGGACAGAAGGGCAGAGCAA [C6A G8U C9A U10A] | 0.023
3 | AGUUGAAGAAGGGAGCUCCAGCGCAGUGAAAUGGACAGAAGGGCAGAGCAA [C6A U7A C9A U10A A23G] | 1.32
4 | AGUUGAAGAAGGGAGCUCCAGCUCAGUGAAAUGGACAGAAGGGCAGAGCAA [C6A U7A C9A U10A A23U] | 0.394
5 | AGUUGAAGAAGGGAGCUCCAGCCCAGUGAAAUGGACAGAAGGGCAGAGCAA [C6A U7A C9A U10A A23C] | 0.443
6 | AGUUGAAGAAGGGAGCUCCAGCACAGUGAUAUGGACAGAAGGGCAGAGCAA [C6A U7A C9A U10A A30U] | 0.433
7 | AGUUGAAGAAGGGAGCUCCAGCACAGUGACAUGGACAGAAGGGCAGAGCAA [C6A U7A C9A U10A A30C] | 0.809
8 | AGUUGAAGAAGGGAGCUCCAGCACAGUGAGAUGGACAGAAGGGCAGAGCAA [C6A U7A C9A U10A A30G] | 0.658
9 | AGUUGAAGAAGGGAGCUCCCACACAGUGAAAUGGACAGAAGGGCAGAGCAA [C6A U7A C9A U10A A20C G21A] | 0.223
10 | AGUUGAAGAAGGGAGCUCCCCCACAGUGAAAUGGACAGAAGGGCAGAGCAA [C6A U7A C9A U10A A20C G21C] | 0.209
11 | AGUUGAAGAAGGGAGCUCCCUCACAGUGAAAUGGACAGAAGGGCAGAGCAA [C6A U7A C9A U10A A20C G21U] | 0.286
12 | AGUUGAAGAAGGGAGCUCCUCCACAGUGAAAUGGACAGAAGGGCAGAGCAA [C6A U7A C9A U10A A20U G21C] | 0.712
13 | AGUUGAAGAAGGGAGCUCCUACACAGUGAAAUGGACAGAAGGGCAGAGCAA [C6A U7A C9A U10A A20U G21A] | 0.432
14 | AGUUGAAGAAGGGAGCUCCUUCACAGUGAAAUGGACAGAAGGGCAGAGCAA [C6A U7A C9A U10A A20U G21U] | 0.376
15 | AGUUGAAGAUGGGAGCUCCAGCACAGUGAAAUGGACAGAAGGGCAGAGCAA [C6A U7A C9A] | 1.65
16 | AGUUGAAGAAGGGAGCUCCAGCACAGUGCCAUGGACAGAAGGGCAGAGCAA [C6A U7A C9A U10A A29C A30C] | 1.17
17 | AGUUGAAGAAGGGAGCUCCAGCACAGUGCGAUGGACAGAAGGGCAGAGCAA [C6A U7A C9A U10A A29C A30G] | 1.51
18 | AGUUGAAGAAGGGAGCUCCAGCACAGUGCUAUGGACAGAAGGGCAGAGCAA [C6A U7A C9A U10A A29C A30U] | 0.34
19 | AGUUGAAGAAGGGAGCUCCAGCUAAGUGAAAUGGACAGAAGGGCAGAGCAA [C6A U7A C9A U10A A23U C24A] | 0.207
20 | AGUUGAAGAAGGGAGCUCCAGCUUAGUGAAAUGGACAGAAGGGCAGAGCAA [C6A U7A C9A U10A A23U C24U] | 0.0381
21 | AGUUGAAGAAGGGAGCUCCAGCUGAGUGAAAUGGACAGAAGGGCAGAGCAA [C6A U7A C9A U10A A23U C24G] | 0.918
22 | AGUUGAAGAAGGGAGCUCCAGCACGGUGAAAUGGACAGAAGGGCAGAGCAA [C6A U7A C9A U10A A25G] | 1.94
23 | AGUUGAAGAAGGGAGCUCCAGCACCGUGAAAUGGACAGAAGGGCAGAGCAA [C6A U7A C9A U10A A25C] | 2.61
24 | AGUUGAAGAAGGGAGCUCCAGCACUGUGAAAUGGACAGAAGGGCAGAGCAA [C6A U7A C9A U10A A25U] | 1.04
25 | AGUUGAAGCUGGGAGCUCCAGCACAGUGAAAUGGACAGAAGGGCAGAGCAA [C6A U7A] | 0.261
26 | AGUUUCCACAGGGAGCUCCAGCACAGUGAAAUGGACAGAAGGGCAGAGCAA [G5U U7C G8A U10A] | 0.168

Row | Variant | exon inclusion enrichment index
27 | AGUUUCCACCGGGAGCUCCAGCACAGUGAAAUGGACAGAAGGGCAGAGCAA [G5U U7C G8A U10C] | 1.83
28 | AGUUGAUCAAGGGAGCUCCAGCACAGUGAAAUGGACAGAAGGGCAGAGCAA [C6A G8C C9A U10A] | 0.392
29 | AGUUGAUCACGGGAGCUCCAGCACAGUGAAAUGGACAGAAGGGCAGAGCAA [C6A G8C C9A U10C] | 1.49
30 | AGUUUCACUUGGGAGCUCCAGCACAGUGAAAUGGACAGAAGGGCAGAGCAA [G5U U7A G8C C9U] | 0.582
31 | AGUUGAAGAAGGGAGCUCCGUCACAGUGAAAUGGACAGAAGGGCAGAGCAA [C6A U7A C9A U10A A20G G21U] | 0.779
32 | AGUUGAAGAAGGGAGCUCCGACACAGUGAAAUGGACAGAAGGGCAGAGCAA [C6A U7A C9A U10A A20G G21A] | 1.2
33 | AGUUGAAGAAGGGAGCUCCGCCACAGUGAAAUGGACAGAAGGGCAGAGCAA [C6A U7A C9A U10A A20G G21C] | 0.891
34 | AGUUUCGCUUGGGAGCUCCAGCACAGUGAAAUGGACAGAAGGGCAGAGCAA [G5U U7G G8C C9U] | 1.58
35 | AGUUGAAGAAGGGAGCUCCAGCGAAGUGAAAUGGACAGAAGGGCAGAGCAA [C6A U7A C9A U10A A23G C24A] | 1.85
36 | AGUUGAAGAAGGGAGCUCCAGCGUAGUGAAAUGGACAGAAGGGCAGAGCAA [C6A U7A C9A U10A A23G C24U] | 0.189
37 | AGUUGAAGAAGGGAGCUCCAGCGGAGUGAAAUGGACAGAAGGGCAGAGCAA [C6A U7A C9A U10A A23G C24G] | 1.58
38 | AGUUGAAGAAGGGAGCUCCAGCACAGUGAGCUGGACAGAAGGGCAGAGCAA [C6A U7A C9A U10A A30G A31C] | 0.0339
39 | AGUUGAAGAAGGGAGCUCCAGCACAGUGAGGUGGACAGAAGGGCAGAGCAA [C6A U7A C9A U10A A30G A31G] | 0.168
40 | AGUUGAAGAAGGGAGCUCCAGCACAGUGAGUUGGACAGAAGGGCAGAGCAA [C6A U7A C9A U10A A30G A31U] | 0.133
41 | AGUUGAUUUUGGGAGCUCCAGCACAGUGAAAUGGACAGAAGGGCAGAGCAA [C6A G8U C9U] | 0.134
42 | AGUUUCCAUUGGGAGCUCCAGCACAGUGAAAUGGACAGAAGGGCAGAGCAA [G5U U7C G8A C9U] | 0.504
43 | AGUUGAAGAAGGGAGCUCCAGCACAGUGUUAUGGACAGAAGGGCAGAGCAA [C6A U7A C9A U10A A29U A30U] | 0.198
44 | AGUUGAAGAAGGGAGCUCCAGCACAGUGUGAUGGACAGAAGGGCAGAGCAA [C6A U7A C9A U10A A29U A30G] | 0.739
45 | AGUUGAAGAAGGGAGCUCCAGCACAGUGUCAUGGACAGAAGGGCAGAGCAA [C6A U7A C9A U10A A29U A30C] | 0.665
46 | AGUUUCGGUUGGGAGCUCCAGCACAGUGAAAUGGACAGAAGGGCAGAGCAA [G5U U7G C9U] | 0.575
47 | AGUUUCGGAUGGGAGCUCCAGCACAGUGAAAUGGACAGAAGGGCAGAGCAA [G5U U7G C9A] | 2.09
48 | AGUUUCAUUUGGGAGCUCCAGCACAGUGAAAUGGACAGAAGGGCAGAGCAA [G5U U7A G8U C9U] | 0.343
49 | AGUUUCAUAUGGGAGCUCCAGCACAGUGAAAUGGACAGAAGGGCAGAGCAA [G5U U7A G8U C9A] | 0.367
50 | AGUUGAAGAUUGGAGCUCCAGCACAGUGAAAUGGACAGAAGGGCAGAGCAA [C6A U7A C9A G11U] | 2.86
51 | AGUUGAAGAUAGGAGCUCCAGCACAGUGAAAUGGACAGAAGGGCAGAGCAA [C6A U7A C9A G11A] | 0.721
